Test results as given in patent US9492315B2, “Implantable therapeutic device” (ForSight Vision4, Inc., priority 2010, dated 2016).
Read-outs that look alike come from different tables or passages of the source.

Legend:
[1] = test system: retinal thickness / lesion size in wet AMD; test: Low dose Lucentis MIC study in wet AMD patients with OCT imaging (Example 18); assay type: in vivo, human
From the text: OCT (Optical Coherence Tomography) imaging was used to assess the condition of the region of the macula at the back surface of the treated eye. The OCT technique relies on the measurement of certain properties of light (e.g. echo time, intensity of reflection) that has been directed at the area of study and can measure very small amounts of reflected light. Because these cellular features are essentially transparent it is possible to use OCT methodology to generate three dimensional representations of the area.
The regions of interest were analyzed with a two dimensional representation of the cross section of the retinal wall at one longitudinal scan location of the OCT image. In these “OCT scan” images is it possible to interrogate very local areas of interest more specifically. The OCT scans were carefully selected to directly compare the thickness and anatomical structure of specific sites within a lesion, pre and post treatment, for the purpose of assessing the effect of injected drug including a reduction in sub-retinal fluid.
The OCT images were measured the day after injection and at 2-3 days post injection.
Further studies can be conducted by one or ordinary skill in the based on the teachings described herein to determine empirically the MIC for a sustained release device and cumulative effect of the drug over the time of release.

[2] = humans (Lucentis package insert); cited from earlier work
[3] = Calculations of Lucentis concentrations in the vitreous, monkey model (bolus injections and device Simulations 1-5); settings: parameter applied in Simulations 1-5 (column = simulation)
From the text: A model can be derived to describe the release rate as a function of time by relating the change of concentration in the reservoir to the release rate described above. This model assumes a solution of therapeutic agent where the concentration in the reservoir is uniform. In addition, the concentration in the receiving fluid or vitreous is considered negligible (cV=0). Solving the differential equation and rearrangement yields the following equations describing the concentration in the reservoir as a function of time, t, and volume of the reservoir, VR, for release of a therapeutic agent from a solution in a reservoir though a porous structure. cR=cR0exp((−DPA/FLVR)t) and Cumulative Release=1−cR/cR0
A bolus injection into the vitreous may be modeled as a single exponential with rate constant, k=0.693/half-life and a cmax=dose/Vv where Vv is the vitreous volume. […] The vitreous volume is approximately 1.5 mL for the rabbit and monkey and 4.5 mL for the human eye. […] This concentration decays to a vitreous concentration of 0.1 ug/mL after about a month.
For devices with extended release, the concentration in the vitreous changes slowly with time. […]
The first column used the measured Cmax (Gaudreault et al.) while the second used a calculated Cmax based on the dose and volume of the vitreous.

[4] = test system: Grade IV choroidal neovascularization (CNV) lesions; settings: intravitreal injection, all doses tested, cynomolgus monkeys, laser photocoagulation model; cited from earlier work
[5] = Determined concentration profiles of Lucentis/ranibizumab in the vitreous humor for injections into the device or bolus (FIGS. 19B-19T, 32A-32E, 37); parameters: species or system human; settings: parameter used for FIGS. 19K to 19P, half-life 9 days
From the text: The therapeutic device 100 can be tuned to deliver a target therapeutic concentration profile based on the volume of formulation injected into the device. The injected volume may comprise a substantially fixed volume, for example within about +/−30% of an intended predetermined target volume. The volume of the reservoir can be sized with the release rate index so as to release the therapeutic agent for an extended time substantially greater than the treatment time of a corresponding bolus injection. The device can also be tuned to release the therapeutic agent based on the half life of the therapeutic agent in the eye. The device volume and release rate index comprise parameters that can be tuned together based on the volume of formulation injected and the half life of the therapeutic agent in the eye. The following equations can be used to determine therapeutic device parameters suitable for tuning the device. Rate=Vr(dCr/dt)=−D(PA/TL)Cr where Rate=Rate of release of therapeutic agent from device Cr=concentration of therapeutic agent in reservoir Vr=volume of reservoir D=Diffusion constant PA/TL=RRI P=porosity A=area T=tortuosity=F=channel parameter. […]
These concentration profiles were determined with modeling and calculations as described herein. […]

[6] = rabbit and monkey (Gaudreault et al.), cited from earlier work

## ranibizumab [Lucentis]
[1]; decrease in size of the lesion on OCT after low dose bolus, patient # in r2, dose in r4
  Treatment Effect Observed?: Yes
[1]; human patients, wet AMD
  MIC for a sustained release device: ≤ 1 ug per ml
[2]
  half-life in the vitreous: ~220 h
[3]
  Rate constant, k: 0.264 day⁻¹
[4]
  development of Grade IV CNV lesions: completely inhibited
[5]
  Rate constant, k: 0.077 day⁻¹
[6]
  half-life in the vitreous: two to four
[6]; listed as ranibizumab
  half-life in the vitreous: approximately 3 days
